Molecular target: NLRP3 inflammasome (Homo sapiens, UniProt Q96P20)
Test: In vitro assay of NLRP3 assembly (hybridoma clones)
Details: compared among the hybridoma clones

Chain of NLRP3 inflammasome (Q96P20 whole entry): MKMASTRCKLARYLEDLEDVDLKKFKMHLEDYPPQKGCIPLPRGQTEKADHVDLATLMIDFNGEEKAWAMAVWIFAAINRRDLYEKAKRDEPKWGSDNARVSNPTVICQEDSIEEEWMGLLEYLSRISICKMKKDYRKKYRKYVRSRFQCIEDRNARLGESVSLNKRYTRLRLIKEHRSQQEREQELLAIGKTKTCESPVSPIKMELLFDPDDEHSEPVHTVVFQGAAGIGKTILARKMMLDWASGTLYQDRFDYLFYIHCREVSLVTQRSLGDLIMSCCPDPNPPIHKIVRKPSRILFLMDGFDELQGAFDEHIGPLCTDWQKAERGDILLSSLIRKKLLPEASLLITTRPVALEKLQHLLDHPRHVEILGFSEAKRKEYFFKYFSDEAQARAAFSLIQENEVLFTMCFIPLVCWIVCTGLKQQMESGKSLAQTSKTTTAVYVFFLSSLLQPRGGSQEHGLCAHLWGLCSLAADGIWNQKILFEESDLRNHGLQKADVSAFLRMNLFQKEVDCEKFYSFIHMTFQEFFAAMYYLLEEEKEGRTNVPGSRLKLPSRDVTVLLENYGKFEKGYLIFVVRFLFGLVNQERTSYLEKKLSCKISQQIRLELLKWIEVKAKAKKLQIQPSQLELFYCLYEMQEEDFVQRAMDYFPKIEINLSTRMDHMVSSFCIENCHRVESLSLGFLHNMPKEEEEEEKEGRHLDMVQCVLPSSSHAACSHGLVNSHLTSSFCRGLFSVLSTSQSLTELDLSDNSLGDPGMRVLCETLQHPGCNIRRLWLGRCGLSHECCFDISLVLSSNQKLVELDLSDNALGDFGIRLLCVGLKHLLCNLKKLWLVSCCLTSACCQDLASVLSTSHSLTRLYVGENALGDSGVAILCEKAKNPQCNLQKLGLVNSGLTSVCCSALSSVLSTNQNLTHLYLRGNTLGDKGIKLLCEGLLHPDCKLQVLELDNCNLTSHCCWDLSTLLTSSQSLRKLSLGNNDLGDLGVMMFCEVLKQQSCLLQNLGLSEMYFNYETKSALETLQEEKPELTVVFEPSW

B1: F226 7A7-1E1-2D5: anti-NLRP3 monoclonal antibody from hybridoma clone, sequenced and used in the bispecific; VH SEQ ID NO: 36, VL SEQ ID NO: 43 (antibody)
VH: MDFGLSWVFLVLVLKGVQCEVQLVESGGGLVKPGGSLKLSCAASGFTFSDYYMYWVRQTPEKRLEWVATISDGGTYTYYPDSVKGRFTISRDNAKNNLYLQMNSLKSEDTAMYYCARGWVSTMVKLLSSFPYWGQGTLVTVSAAKTTPPSVYPLA
VL: MAWISLLFSLLALSSGAISQAVVTQESALTTSPGETVTLTCRSSTGAVTTSNYANWVQEKPDHLFTGLIGGTNNRAPGVPARFSGSLIGDKAALTITGAQTEDEAIYFCALWYSNYWVFGGGTKLTVLGQPKSSPSVTLFPPSTEKLSL
  preventing NLRP3 assembly: most active

Source: US12264201B2, “Bispecific antibody targeting IL-1R1 and NLPR3” (University of Ulster, priority 2018, dated 2025)
